This data set deals with T1, MtuSSB (Mycobacterium tuberculosis, UniProt P9WGD5).
T1 sequence: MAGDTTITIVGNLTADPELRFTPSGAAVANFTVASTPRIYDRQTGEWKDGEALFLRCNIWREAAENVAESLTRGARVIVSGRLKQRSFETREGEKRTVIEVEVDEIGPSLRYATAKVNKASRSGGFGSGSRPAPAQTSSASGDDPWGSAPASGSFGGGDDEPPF
Put plainly: EMSA; 20 mM Tris-HCl pH 8.0, 50 mM NaCl, 5% glycerol, 50 μg/ml BSA, 15 μl, 30 min at 4°C; […]. As to conditions: protein: recombinant; chain copies: 4; label: 5' 32P; single strand. (In general: Mobility shift assays separate free from complexed probe on a gel.)

B1: 79 mer ssDNA (ssDNA)
DNA: GCACTAGTGCGGATAGCCCCGTGTTGTTGTCTGACCCCCGACCCCGACGGCAATGCGGGGCAATCCCCTGGAGGCCTGC
Take B1: the binding result is reported as “binds”.

The values above are taken from article PMC3983218.
